Numbering of substitutions follows the chain as printed.
T1: human CD73 (Homo sapiens, UniProt P21589)
T1 construct: expressed in transfected cells; stably transfected in method 5.1)
T1 sequence (P21589 27-549): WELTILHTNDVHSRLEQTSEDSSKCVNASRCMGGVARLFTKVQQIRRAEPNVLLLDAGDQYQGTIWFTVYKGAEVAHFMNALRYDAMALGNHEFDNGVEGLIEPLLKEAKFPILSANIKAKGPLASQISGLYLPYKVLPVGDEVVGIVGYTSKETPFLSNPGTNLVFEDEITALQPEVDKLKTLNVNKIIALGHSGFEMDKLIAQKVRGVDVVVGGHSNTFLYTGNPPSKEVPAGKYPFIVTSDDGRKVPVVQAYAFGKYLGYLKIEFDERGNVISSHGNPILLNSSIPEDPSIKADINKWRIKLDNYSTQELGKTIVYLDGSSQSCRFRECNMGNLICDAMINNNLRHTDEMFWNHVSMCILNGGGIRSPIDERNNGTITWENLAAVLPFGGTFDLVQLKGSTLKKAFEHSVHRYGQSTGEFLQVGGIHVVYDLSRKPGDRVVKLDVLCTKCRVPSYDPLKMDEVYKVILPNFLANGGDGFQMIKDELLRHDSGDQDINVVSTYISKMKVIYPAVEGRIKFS

T2: native CD73 on the cell surface of peripheral blood leukocytes (PBMCs) (Homo sapiens, UniProt P21589)
T2 construct: endogenous in cells; host or cells: human PBMCs (B and T lymphocytes)
T2 sequence (P21589 27-549): T1 sequence (P21589 27-549)

T3: soluble human CD73 (Homo sapiens, UniProt P21589)
T3 construct: The ectodomain of CD73 (aa 27-549) was expressed as a recombinant protein with a C-terminal His6× tag; His6 (C); made in house; host or cells: transiently transfected HEK cells
T3 sequence (P21589 27-549): T1 sequence (P21589 27-549)

T4: CD73-expressing human AML-OCI3 cells (Homo sapiens, UniProt P21589)
T4 construct: CD73-expressing human AML-OCI3 cells (AML cell line); endogenous in cells; host or cells: OCI-AML3 human AML cell line
T4 sequence (P21589 27-549): T1 sequence (P21589 27-549)

B1: SB142: CD73-specific alpaca VHH clone, family 2 in Tables 1-2, SEQ ID NO:73; tested as rabbit IgG hcAb (antibody)
heavy: QVQLVESGGGLVQPGGSLRLSCAASGFTFINYHMSWLRQAPGKGLEWVSEIHSRGDITSYTNSVKGRFTISRDNAKNTLYLQMNSLKFDDTAVYYCARSRDLFGEGEYDYWGRGTQVTVSS
modifications: left off: a dimerising Fc or GST
notes: tested as rabbit IgG hcAb
B2: SB116-188-Alb: biparatopic SB116-188-Alb trimers, anti-CD73 nanobody heterotrimer (protein)
chain (part 1 of 2): QVKLQESGGGRVQTGGSLRLSCAASGISFSITTMYWYRQAPGEQRQLVALITDRGNTYYVDSVKGRFTISRDDSKNTVYLQMNDLKPEDTAVYFCNSIPGNDWGQGTQVTVSS
chain (part 2 of 2): B1 heavy with P14A, G44E, L45R, W47F, S49A, L79V, F88P, D89E, G104N
modifications: left off: small tags and cut ends; another chain or arm of the molecule
notes: biparatopic SB116-188-Alb trimers, anti-CD73 nanobody heterotrimer

Assays:
human CD73 = biological target: T1, human CD73; assay: Flow cytometry binding of rabbit IgG hcAbs to human CD73-transfected HEK cells; set-up: key: binding to human (h) and mouse (m) CD73; binding to human (h) and mouse (m) CD73; conditions: family representative clone; h = binds human CD73, m = binds mouse CD73
Experimental: HEK cells were co-transfected with expression vectors for green fluorescent protein (GFP) and human CD73, mouse CD73, and a control cell surface protein (CD39). 48 h after transfection, cells were incubated with HEK cell supernatants containing the indicated rabbit IgG hcAbs. Bound antibodies were detected with PE-conjugated anti rabbit IgG secondary antibody.
• 5.1 Untransfected HEK293 cells and HEK293 cells stably transfected with human or mouse CD73 were incubated for 30 min with HEK-6E cell supernatants containing rabbit IgG hcAbs (diluted 1:10 in PBS/0.1% BSA). Following washing with PBS/0.1% BSA, bound antibodies were detected with PE-conjugated goat anti-rabbit IgG polyclonal antibody (711-116-152 Dianova, Hamburg). • 5.2 For dissociation analyses, two separate aliquots of CD73-transfected cells were incubated either with Cell Proliferation Dye eFluor 450 (eBioscience) or with hcAbs for 20 min at RT. Cells were washed four times, mixed at a 1:1 ratio and further incubated at RT for 120 min before staining of bound antibodies with PE-conjugated goat anti-rabbit IgG polyclonal antibody. The dissociation of hcAbs from the target cells and association with the eFluor 450 labeled cells was analyzed by flow cytometry using the FlowJo software (Treestar). • 5.3 For epitope analyses, cells were preincubated with excess human IgG hcAbs (10 μl HEK-6E cell supernatant/100 μl PBS/0.1% BSA) for 30 min at RT before addition of Nb-rabbit IgG hcAbs (1 μl HEK-6E cell supernatant/100 μl PBS/0.1% BSA) and further incubation for 20 min at RT and staining with PE-conjugated anti-rabbit polyclonal antibody (711-116-152 Dianova, Hamburg). Cells were washed and analyzed by flow cytometry on a BD-FACS Canto. Data were analyzed using the FlowJo software (Treestar).
The binding specificities of the purified hcAbs were determined by flow cytometry using HEK cells transiently co-transfected with expression vectors for GFP and either mouse CD73, human CD73 or a control protein (CD39). 1×10^6 cells were incubated with 10 μl of the Nb-rbIgG hcAb containing HEK-6E cell supernatants for 30 min at 4° C. After washing, the cells were incubated with PE-conjugated anti-rabbit IgG polyclonal antibody (711-116-152 Dianova, Hamburg) and washed twice. The cells were resuspended in PBS and analyzed by flow cytometry on FACS Canto or FACS Celesta (BD Biosciences, Heidelberg). Data evaluation was conducted using the software FlowJo (Treestar, Stanford, US).

[1] = biological target: T2, native CD73 on the cell surface of peripheral blood leukocytes (PBMCs); assay: Flow cytometry binding of hcAbs to native CD73 on blood leukocytes; conditions: lymphocyte gate, co-stained for CD3 and CD19
Experimental: Purified hcAbs were analysed for binding to native CD73 on the cell surface of peripheral blood leukocytes (PBMCs) by flow cytometry. To this end purified human PBMCs were incubated for 30 min at RT with 10 μl of rabbit hcAb-containing HEK-6E cell supernatants and bound antibodies were detected with a FITC conjugated anti rabbit IgG secondary antibody. To distinguish between B lymphocytes most of which express high levels of cell surface CD73, and T lymphocytes a subset of which express moderate levels of cell surface CD73, cells were co-stained with PE-conjugated mouse anti-human CD3 mAb (UCHT1) and a PerCP/Cy5.5-conjugated mouse anti-human CD19 mAb (HIB19). After washing the cells, cells were analyzed by flow cytometry. A hcAb binding only to murine CD39 (SB30) was used as a negative control. […] Gating was performed on lymphocytes on the basis of forward and side scattered light.

soluble human CD73 [2] = biological target: T3, soluble human CD73; assay: Off-rates of soluble CD73 from immobilized Nb-rbIgG hcAb on Octet BLI; type: binding; conditions: soluble human CD73 ectodomain 200 ng/μl as analyte; Nb-rbIgG hcAb immobilized on protein A biosensor
Experimental: The binding off-rate constants of bivalent hcAbs to human and mouse CD73 protein were determined by […] kinetic analysis on Octet RED96 (ForteBio). Immobilization of rabbit IgG hcAbs on the protein A-biosensor surface was done in HEK-6E cell supernatant, and regeneration of analytes was done with 100 mM Glycin pH=2.5. Recombinant mouse or human CD73 ectodomain was used as analytes and tested at a saturating dose of 200 ng/μl. Sensorgrams were fitted using least square regression in association than dissociation Model in Prism8 (Graphpad).

[3] = biological target: T4, CD73-expressing human AML-OCI3 cells; assay: AMP degradation by cell bound CD73, luminometric AMPglow assay; type: cell-based; conditions: CD73 expressed on the cell surface of OCI-AML3 cells; compared with dimeric SB116 or SB188 Fc constructs
Experimental: AMP was added and AMP degradation was measured using the luminometric AMPglow assay. Data analyses were performed using Prism (Graphpad).
(§1) Soluble recombinant human CD73 or CD73-expressing human […] cells were incubated with CD73-specific dimeric clones SB116-rbFc, SB188-rbFc, biparatopic SB116-188-Alb trimers or with non-binding L-10e-rbFc clone (control). AMP was added and AMP degradation was measured using the luminometric AMPglow assay. Data analyses were performed using Prism (Graphpad).

soluble human CD73 [4] = biological target: T3, soluble human CD73; assay: AMP degradation by soluble CD73, luminometric AMPglow assay; type: biochemical; conditions: CD73 present as soluble enzyme; compared with dimeric SB116 or SB188 Fc constructs
Experimental: as §1

Row | Molecule | specificity (human CD73) | staining of native CD73 on human PBMCs [1] | Kdis (soluble human CD73 [2]) | blockade of CD73-mediated AMP degradation [3] | blockade of CD73-mediated AMP degradation (soluble human CD73 [4])
1 | B1 | h | on most B cells and on a subset of T cells | 0.00036 s⁻¹ | – | –
2 | B2 | – | – | – | less potent compared to dimeric SB116 or SB188 Fc constructs | enhanced blockade of CD73-mediated AMP degradation when compared to dimeric SB116 or SB188 Fc constructs
